Test in all cases: cell-based or functional assay
The target of assay [1] is murine IL-12 receptor on mouse CD14- PBMC (mouse) (UniProt P97378).
Assay [2] deals with rat IL-12 receptor on rat PBMC (rat).
For assay [3], the target named is rhesus monkey IL-12 receptor on rhesus monkey CD14- PBMC (rhesus monkey) (UniProt F6X0C8).

This is an account of results in patent US20130243722A1.

Sequence of murine IL-12 receptor on mouse CD14- PBMC (mouse) (P97378 24-874): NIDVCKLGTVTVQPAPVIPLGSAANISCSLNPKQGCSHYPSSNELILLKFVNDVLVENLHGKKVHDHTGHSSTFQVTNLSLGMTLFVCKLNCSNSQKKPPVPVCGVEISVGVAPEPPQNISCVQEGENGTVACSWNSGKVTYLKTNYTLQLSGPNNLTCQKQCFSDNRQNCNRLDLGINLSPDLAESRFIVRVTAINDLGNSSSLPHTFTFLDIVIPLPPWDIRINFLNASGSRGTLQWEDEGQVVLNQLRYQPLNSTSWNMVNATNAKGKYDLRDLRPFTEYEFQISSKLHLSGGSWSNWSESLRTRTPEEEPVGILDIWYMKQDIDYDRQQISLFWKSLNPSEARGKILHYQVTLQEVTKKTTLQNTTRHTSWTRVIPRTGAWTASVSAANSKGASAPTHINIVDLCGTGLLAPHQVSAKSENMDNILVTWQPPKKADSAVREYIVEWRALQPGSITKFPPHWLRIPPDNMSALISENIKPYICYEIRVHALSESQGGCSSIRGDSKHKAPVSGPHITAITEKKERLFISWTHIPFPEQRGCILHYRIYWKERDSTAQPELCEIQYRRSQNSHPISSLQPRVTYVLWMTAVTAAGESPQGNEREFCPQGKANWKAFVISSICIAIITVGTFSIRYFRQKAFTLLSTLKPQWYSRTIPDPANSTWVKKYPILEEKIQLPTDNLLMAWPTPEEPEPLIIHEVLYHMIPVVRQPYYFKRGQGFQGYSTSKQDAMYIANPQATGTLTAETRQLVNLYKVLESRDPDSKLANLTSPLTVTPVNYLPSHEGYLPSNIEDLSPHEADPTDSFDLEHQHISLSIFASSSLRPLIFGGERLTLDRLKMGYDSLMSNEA
Sequence of rhesus monkey IL-12 receptor on rhesus monkey CD14- PBMC (rhesus monkey) (F6X0C8 entry or part of it): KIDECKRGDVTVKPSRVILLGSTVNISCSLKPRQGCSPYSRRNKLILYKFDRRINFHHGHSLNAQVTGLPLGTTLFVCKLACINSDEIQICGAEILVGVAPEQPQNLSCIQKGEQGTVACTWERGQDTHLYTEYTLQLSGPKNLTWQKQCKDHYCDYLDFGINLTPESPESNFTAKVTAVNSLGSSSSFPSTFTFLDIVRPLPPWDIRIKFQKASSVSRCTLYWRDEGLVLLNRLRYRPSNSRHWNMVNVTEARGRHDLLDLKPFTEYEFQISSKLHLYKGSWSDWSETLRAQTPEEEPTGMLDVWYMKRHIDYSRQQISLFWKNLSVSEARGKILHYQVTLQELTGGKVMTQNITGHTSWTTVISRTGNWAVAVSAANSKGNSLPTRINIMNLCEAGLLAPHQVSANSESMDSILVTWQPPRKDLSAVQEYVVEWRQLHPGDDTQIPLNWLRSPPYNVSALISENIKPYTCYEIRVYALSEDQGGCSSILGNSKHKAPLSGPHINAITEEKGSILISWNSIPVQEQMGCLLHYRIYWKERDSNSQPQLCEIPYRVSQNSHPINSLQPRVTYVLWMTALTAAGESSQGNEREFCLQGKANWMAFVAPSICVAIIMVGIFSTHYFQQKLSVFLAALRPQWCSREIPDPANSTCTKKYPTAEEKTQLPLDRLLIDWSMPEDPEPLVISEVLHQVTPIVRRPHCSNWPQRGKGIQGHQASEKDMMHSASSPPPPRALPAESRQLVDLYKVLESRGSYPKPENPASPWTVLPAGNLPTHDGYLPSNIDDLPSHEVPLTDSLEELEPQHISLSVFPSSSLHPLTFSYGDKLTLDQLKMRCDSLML

Turning to “recombinant murine IL-12 (from UniProt P43431 23-215; P43432 24-335) (ligand)”, in assay [1], the EC50 for stimulating IFN-γ secretion from CD14- PBMC (ELISA, 16 hours) was 0.35 pM.
For the substance “recombinant human IL-12 (from UniProt P29459 23-219; P29460 23-328) (ligand)”, the EC50 for stimulating IFN-γ secretion from PBMC in assay [2] and in assay [1] was above 1000 pM each time. The substance also displayed an EC50 for stimulating IFN-γ secretion from CD14- PBMC (ELISA, 16 hours) in assay [3] of 1.05 pM.
